Test results from paper PMC2104711.
Each block holds one binder with its values, some of them ahead of it.

What was measured:
Settings in all cases: remark: other sources report otherwise
[1] = target: T1, human XLF (1–233) with N-terminal His6 tag (XLF410) (human), Q9H9Q4; assay: cross-linking
T1 chain: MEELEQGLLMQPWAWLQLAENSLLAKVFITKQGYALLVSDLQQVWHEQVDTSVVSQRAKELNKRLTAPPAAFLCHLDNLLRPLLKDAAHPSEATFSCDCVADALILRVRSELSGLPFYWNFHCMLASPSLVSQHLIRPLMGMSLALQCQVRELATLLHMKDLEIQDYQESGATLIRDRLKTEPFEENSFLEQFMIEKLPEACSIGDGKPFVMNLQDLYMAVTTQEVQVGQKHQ

[2] = target: T2, SeMet-substituted human XLF (1–233) (SeMet-XLF441, cleaved) (human), Q9H9Q4; assay: crystal structure
T2 chain: T1 chain

[3] = target: T3, human XLF/Cernunnos (1–233), tag-free (cleaved XLF441) (human), Q9H9Q4; assay: dynamic light scattering
T3 chain: T1 chain

stoichiometry N [1]: 2
B1: human XLF (1–233) with N-terminal His6 tag (XLF410), Q9H9Q4 1-233 (domain or fragment)
chain: T1 chain

stoichiometry N [2]: 2
B2: SeMet-substituted human XLF (1–233) (SeMet-XLF441, cleaved), Q9H9Q4 1-233 (domain or fragment)
chain: T1 chain
modifications: here or on the partner: selenomethionine-substituted (SeMet in place of methionine); selenomethionine-substituted (SeMet in place of methionine)

stoichiometry N [3]: 2
B3: human XLF/Cernunnos (1–233), tag-free (cleaved XLF441), Q9H9Q4 1-233 (domain or fragment)
chain: T1 chain
